Data published in paper PMC7041718 (The Journal of Experimental Medicine, 2019).

Target: 16055 gp120 (HIV-1 clade C clinical isolate 16055)
Assay: ELISA

- binding result: binds
B1: GM7_TH2 mAb (antibody, V domains shown)
VH: QVQLVQSGTEVKQPGASVKVSCKASGYTFTGYGMNWVRQAHGQRLEWMGWINTETGHPTYAQGFKERFTFSMDTSISTAYLQINSLKPEDTAIYYCARFSGLHSVAVFEYWGQGVLVTVSS
VL: SSGLTQEPALSVALGHTVRMTCQGDSLKTYYATWYQQKPGQVPVLVIYDNNYRPSGIPGRFSVSWSGDTNSLTITAAQVEDEADYYCNSWDSSGTHLLFGGGTRLTVL
